Assays:
[1] = system: size-sieved stem cells (SSCs) derived from human bone marrow; test: Morphology of SSCs (phase contrast), neuronal-like transformation; type: cell-based; conditions: for morphology of neurites/processes of SSCs: ITS medium, 7 days, GDNF 50 ng/ml, PACAP 20 ng/ml, dbcAMP 0.1 mM, compared to ITS medium alone
Procedure: SSCs were isolated from human bone marrow as described previously (Hung et al. (2002)). In brief, human bone marrow was aspirated from the iliac crest of normal donors, and then washed twice with phosphate-buffered saline (PBS). The cells were loaded into 1.073 g/ml Percoll solution (Sigma®), and then centrifuged at 900 g for 30 min. The mononuclear cells (MNCs) were collected from the interface, and plated at the density of 1×10^6 MNCs/cm^2 onto a 10-cm plastic culture dish comprised of an inserted sieve with 3-μm pores (Transwell System, Corning®). The cells were cultured in Dulbecco's modified Eagle's medium-low glucose (DMFM-LG) containing 10% fetal bovine serum (FBS), 100 U/ml penicillin, […] streptomycin, and 0.25 μg/ml amphotericin B (serum-containing medium). […] However, the cells that passed through the sieve were small, polygonal and had less renewal. SSCs were then harvested with 0.25% trypsin and 1 mM EDTA, and replated on 10-cm culture petri dishes. When SSCs were grown in serum containing medium to 80% confluence, the cells were replated onto 35-mm culture petri dishes at the density of 1×10^5 cells/dish for Western Blotting, or onto 8-well chambers at the density of 1×10^4 cells/well for immunofluorescence.
[…] ITS medium consisted of 56% DMEM-LG (Life Biotech®), 40% MCDB-201 medium (Sigma®), and 1×ITS medium supplement (Sigma®) contained 1 mg/ml insulin, 0.55 mg/ml human transferrin, 0.5 μg/ml sodium selenite, 10 nM dexamethasone (Sigma®), and 10 μM ascorbic acid (Sigma®)). […] However, when SSCs were cultured in serum free medium with ITS supplement, these cells adhered well onto cultured plates and extended their processes. Therefore, treatments were performed in ITS medium.

[2] = system: size-sieved stem cells (SSCs) derived from human bone marrow; test: Western Blotting of neuron-specific markers (NF-L, NF-H) and α-tubulin in SSCs; type: cell-based; conditions: 7 days in ITS medium; for expression of NF-L protein in SSCs: compared to ITS medium alone
Procedure: This is to study the effects of GDNF, PACAP and dbcAMP on neuronal differentiation of SSC in ITS medium. The levels of neuron-specific markers (NF-L and NF-H) in the SSCs were examined by Western Blotting. The cells were replated at the density of 1×10^5 cells per 35 mm petri dish and cultured for 7 days in ITS medium with GDNF, PACAP or dbcAMP at the distinct concentrations. Cells were harvested and gently homogenized on ice using PBS containing 1% SDS, 1 mM phenylmethyl-sulfonylfluoride (PMSF), 1 mM EDTA, […], […], and […]. Protein concentrations were determined using a Bio-Rad® DC kit. Ten μg of total protein was loaded onto 7.5% SDS-PAGE, and transferred to a nitrocellulous membrane. NF-L (70 kDa) and NF-H (200 kDa) were identified by incubating the membrane with anti-NF antibodies (Chemicon®) overnight at 4° C., followed by horseradish peroxidase-conjugated secondary antibodies and enhanced chemiluminescence solution (NEN LifeScience®).

[3] = system: size-sieved stem cells (SSCs) derived from human bone marrow; test: Immunofluorescence staining for α-internexin in SSCs; type: cell-based; conditions: 7 days in ITS medium; GDNF 50 ng/ml, PACAP 20 ng/ml, dbcAMP 0.1 mM
Procedure: Immunofluorescence staining for another neuronal intermediate filament protein, α-internexin (FIG. 5), was performed using antibodies against α-internexin (1:200; Chemicon®).

[4] = system: rats with spinal cord injury (SCI); conditions: intraspinal injection; cited from earlier work
[5] = system: size-sieved stem cells (SSCs) derived from human bone marrow; test: Immunofluorescence for synapsin-1 in SSCs; type: cell-based; conditions: 7 days in ITS medium; 50 ng/ml GDNF or 20 nM PACAP
Procedure: To detect the morphological change of the SSCs that had been treated with 50 ng/ml GDNF or 20 nM PACAP in ITS medium for 7 days, the SSCs were fixed in PBS-containing 4% paraformaldehyde for 10 minutes. Examination of immunofluorescence for synapsin-1, a synapse vesicle protein, was performed by incubating SSCs with anti-synapsin-1 antibodies (1:200; BD Biosciences®) in PBS-containing 0.1% Triton X-100 and 5% horse serum overnight at 4° C., followed by biotinylated secondary antibodies (1:200; Vector®) and FITC-avidin (1:200; Vector®).

With CCCC(=O)Nc1ncnc2c1ncn2[C@@H]1O[C@@H]2COP(=O)(O)O[C@H]2[C@H]1OC(=O)CCC [dbcAMP, dibutyryl cAMP, reference compound] as the molecule, how does the “morphology of neurites/processes of SSCs” value [1] read?
The value was “induced highly branched, elongated, and delicate processes”.

And the “level of α-tubulin in SSCs” value [2]?
The value was “increased”.

What about the “expression of NF-L protein in SSCs” value [2] of the same molecule?
Its value is “increased”.

What about the “process branching/elongation of SSCs (α-internexin staining)” value [3] of the same molecule?
The value was “more extensive branched, elongated processes”.

B1: GDNF: glial cell line-derived neurotrophic factor, a potent survival factor for many CNS neuronal cell populations (R&D) (protein, UniProt P39905 78-211, looked up)
Glial cell line-derived …: SPDKQMAVLPRRERNRQAAAANPENSRGKGRRGQRGKNRGCVLTAIHLNVTDLGLGYETKEELIFRYCSGSCDAAETTYDKILKNLSRNRRLVSDKVGQACCRPIAFDDDLSFLDDNLVYHILRKHSAKRCGCI
What does the source list for B1?
response of SSCs in DMEM-LG medium without serum ([1]; DMEM-LG medium without serum (no ITS supplement)): respond poorly; morphology of neurites/processes of SSCs [1]: further improved the extension of neurites; hindlimb recovery [4]: improved hindlimb recovery; NF-H levels in SSCs [2]: less effect; level of α-tubulin in SSCs [2]: induces; expression of NF-L protein in SSCs [2]: stimulatory effect; processes of synapsin-1 positive cells [5]: extended processes with branching; process branching/elongation of SSCs (α-internexin staining) [3]: could induce process branching of SSCs to some extent
